Assays:
[1] = test system: T1, MMP-cleavable crosslinker KLGPAK (Lys-Leu-Gly-Pro-Ala-Lys)
T1 sequence: KLGPAK

[2] = test system: T2, plasmin-cleavable crosslinker KNRVK (bisacryloylated Lys-Asn-Arg-Val-Lys)
T2 sequence: KNRVK

Chain of plasmin (P00747 20-580): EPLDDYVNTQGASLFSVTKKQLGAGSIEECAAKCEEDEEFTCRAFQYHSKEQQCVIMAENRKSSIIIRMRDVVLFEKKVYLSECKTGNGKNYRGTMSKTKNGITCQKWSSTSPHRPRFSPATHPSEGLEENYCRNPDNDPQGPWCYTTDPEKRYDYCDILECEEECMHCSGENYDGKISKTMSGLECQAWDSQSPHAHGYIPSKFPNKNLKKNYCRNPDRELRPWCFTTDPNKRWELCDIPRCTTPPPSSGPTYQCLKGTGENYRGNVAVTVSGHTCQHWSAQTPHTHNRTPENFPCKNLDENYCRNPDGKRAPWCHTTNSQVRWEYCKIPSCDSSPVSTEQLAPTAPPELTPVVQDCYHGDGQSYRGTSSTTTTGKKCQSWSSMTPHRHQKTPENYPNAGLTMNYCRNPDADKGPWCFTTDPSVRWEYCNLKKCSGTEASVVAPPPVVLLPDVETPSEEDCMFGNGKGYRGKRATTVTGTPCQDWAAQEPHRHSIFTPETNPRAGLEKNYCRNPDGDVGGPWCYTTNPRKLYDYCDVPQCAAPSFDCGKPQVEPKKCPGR
Chain of plasmin (P00747 581-810): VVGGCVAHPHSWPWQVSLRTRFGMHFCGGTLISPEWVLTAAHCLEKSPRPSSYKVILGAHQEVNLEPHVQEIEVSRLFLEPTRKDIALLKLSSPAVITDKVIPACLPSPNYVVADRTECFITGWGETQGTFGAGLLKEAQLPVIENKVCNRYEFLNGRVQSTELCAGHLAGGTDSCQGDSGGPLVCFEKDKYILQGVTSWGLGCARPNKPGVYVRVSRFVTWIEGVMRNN

Substance | release of BSA from nBSALGPA (SDS-PAGE, 30 min) [1] | VEGF released from nVEGF formed with 100% degradable crosslinker (ELISA, with plasmin) [2] | release of BSA from nBSANRV (SDS-PAGE, 30 min) [2] | release percentage of VEGF from de-nVEGFplasmin (100%-peptide crosslinker) (ELISA) [2] | release of VEGF from de-nVEGFplasmin (100%-peptide crosslinker) (ELISA) [2] | degradation of the polymer shells of nBSALGPA (DLS) [1]
plasmin | plasmin is incapable of triggering release of BSA from MMP-specific nBSALGPA | released 95% of the VEGF used to form the nanocapsules | does exhibit a well-defined band (line 3) similar to that of native BSA upon exposure to plasmin | plasmin-incubated nVEGF showed about 60% release percentage | – | –
trypsin | – | – | – | – | only extended periods of incubation with trypsin and collagenase IV had releases of VEGF | –
collagenase (a bacterial equivalent of MMP) | – | – | nBSANRV without exposure to plasmin (line 2) or after exposure to collagenase (line 4) does not show any well-defined band | – | – | Exposing nBSALGPA to collagenase results in specific degradation of the polymer shells

Reference: US9993440
